Data on one substance can be found in patent CN106117360A.

This test has as its target CD3 on Jurkat cells. In words: flow cytometry, culture supernatant on Jurkat cells (negative control sdAb).

Regarding NC-sdAb(相同形式的非相关性sdAb) (VHH), the MFI worked out at 115 MFI.
